± gives the standard error. Variants at the floor of the assay were thinned out.

B1: glmS ribozyme (parent)
chain: AUAAAAGCGCCAGAACUACAGAAAUGUAGUUGACGAGGAGGAGGUUUAUCGAAUUUUCGGCGGAUGCCUCCAAA

Holding throughout (details): with glucosamine-6-phosphate
Variants of B1 are the subject of series [1]. The series is described as follows: self-cleavage kobs at 640 uM GlcN6P; higher = faster cleavage; RNA array. In a few lines: (§1)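 Barcoded ribozyme variants were transcribed in situ on sequenced MiSeq chips by E. coli RNA polymerase. At 37 °C, a hybridised Cy3 probe tracked them while glucosamine-6-phosphate (40 μM to 10 mM) in HEPES/KCl/Mg(OAc)2 buffer flowed in and tiles were imaged over ~14 h. Per-tile medians of signals normalised to baseline and to non-cleaving reference variants were fit to one- or two-exponential decays, giving kobs. kcat and KM came from weighted Michaelis–Menten fits across concentrations.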

In series [2] the parent is B1. The series is described as follows: self-cleavage kobs at 2500 uM GlcN6P; higher = faster cleavage; RNA array. The gist of the method:
as §1

The variants in series [3] derive from B1. The series is described as follows: self-cleavage kobs at 10000 uM GlcN6P; higher = faster cleavage; RNA array. In a few lines:
as §1

For C34A G38U U54A, in the series with glucosamine-6-phosphate [1], the “self-cleavage kobs at 640 uM GlcN6P” value was below 1e-05 s⁻¹. Moreover, the “self-cleavage kobs at 2500 uM GlcN6P” value with glucosamine-6-phosphate [2] was below 1e-05 s⁻¹.

Regarding G29A A48U G62C, in the series with glucosamine-6-phosphate [1], the “self-cleavage kobs at 640 uM GlcN6P” value was below 1e-05 s⁻¹.

As to A6U G40C G44C C50U, the “self-cleavage kobs at 640 uM GlcN6P” value with glucosamine-6-phosphate [1] was below 1e-05 s⁻¹. Moreover, the “self-cleavage kobs at 2500 uM GlcN6P” value with glucosamine-6-phosphate [2] is below 1e-05 s⁻¹.

As for C16G G32U C61U, the “self-cleavage kobs at 640 uM GlcN6P” value with glucosamine-6-phosphate [1] is below 1e-05 s⁻¹. In addition, the “self-cleavage kobs at 2500 uM GlcN6P” value in the series with glucosamine-6-phosphate [2] is below 1e-05 s⁻¹.

Consider G35C A52U C67U C68A, for which the “self-cleavage kobs at 640 uM GlcN6P” value with glucosamine-6-phosphate [1] is below 1e-05 s⁻¹.

In the case of G13A U54C C70U, the “self-cleavage kobs at 640 uM GlcN6P” value with glucosamine-6-phosphate [1] was determined as 9.94e-05 ± 2.2e-05 s⁻¹. Besides, the “self-cleavage kobs at 2500 uM GlcN6P” value with glucosamine-6-phosphate [2] was 0.000291 ± 9.6e-05 s⁻¹.

In the case of C8U G29A G37A A39U C61U A64C, the “self-cleavage kobs at 640 uM GlcN6P” value with glucosamine-6-phosphate [1] was below 1e-05 s⁻¹.

For the variant U45A U49C, the “self-cleavage kobs at 640 uM GlcN6P” value with glucosamine-6-phosphate [1] was below 1e-05 s⁻¹. Besides, the “self-cleavage kobs at 10000 uM GlcN6P” value in the series with glucosamine-6-phosphate [3] is below 1e-05 s⁻¹.

As to G35A C58A, the “self-cleavage kobs at 640 uM GlcN6P” value in the series with glucosamine-6-phosphate [1] was below 1e-05 s⁻¹. The “self-cleavage kobs at 2500 uM GlcN6P” value with glucosamine-6-phosphate [2] was below 1e-05 s⁻¹.

Turning to G7C A42U, the “self-cleavage kobs at 640 uM GlcN6P” value in the series with glucosamine-6-phosphate [1] is below 1e-05 s⁻¹.

In the case of A12C U47C G60U, the “self-cleavage kobs at 640 uM GlcN6P” value with glucosamine-6-phosphate [1] was below 1e-05 s⁻¹.

Regarding A14G G38U G66A, the “self-cleavage kobs at 640 uM GlcN6P” value in the series with glucosamine-6-phosphate [1] is below 1e-05 s⁻¹.

Regarding C8A G13A C61U G62C C70A, the “self-cleavage kobs at 640 uM GlcN6P” value in the series with glucosamine-6-phosphate [1] was below 1e-05 s⁻¹. For the same variant, the “self-cleavage kobs at 2500 uM GlcN6P” value with glucosamine-6-phosphate [2] was below 1e-05 s⁻¹.

C8U U31G G35U G44A C70U: the “self-cleavage kobs at 640 uM GlcN6P” value in the series with glucosamine-6-phosphate [1] is below 1e-05 s⁻¹. Moreover, in the series with glucosamine-6-phosphate [2], the “self-cleavage kobs at 2500 uM GlcN6P” value is below 1e-05 s⁻¹.

On to U46A U65A, for which the “self-cleavage kobs at 640 uM GlcN6P” value with glucosamine-6-phosphate [1] was 0.000776 ± 0.0002 s⁻¹.

On to U45G G66C, for which the “self-cleavage kobs at 640 uM GlcN6P” value with glucosamine-6-phosphate [1] came out at 0.000414 ± 0.00017 s⁻¹. Besides, the “self-cleavage kobs at 2500 uM GlcN6P” value in the series with glucosamine-6-phosphate [2] was 0.000927 ± 0.00042 s⁻¹. Further, the “self-cleavage kobs at 10000 uM GlcN6P” value with glucosamine-6-phosphate [3] stood at 0.00369 ± 0.00067 s⁻¹.

In the case of A14G A15G C34G U69A, in the series with glucosamine-6-phosphate [1], the “self-cleavage kobs at 640 uM GlcN6P” value was 0.000303 ± 0.00014 s⁻¹.

Regarding A6G A39U C70A, the “self-cleavage kobs at 640 uM GlcN6P” value with glucosamine-6-phosphate [1] was below 1e-05 s⁻¹.

For the variant G35C A48G A53U U69C, the “self-cleavage kobs at 640 uM GlcN6P” value in the series with glucosamine-6-phosphate [1] is below 1e-05 s⁻¹.

For the variant G29C C70G, the “self-cleavage kobs at 640 uM GlcN6P” value in the series with glucosamine-6-phosphate [1] stood at 8e-05 ± 1.4e-05 s⁻¹. Also, in the series with glucosamine-6-phosphate [2], the “self-cleavage kobs at 2500 uM GlcN6P” value came to 2.33e-05 ± 8.6e-06 s⁻¹. Further, in the series with glucosamine-6-phosphate [3], the “self-cleavage kobs at 10000 uM GlcN6P” value worked out at 4e-05 ± 1.4e-05 s⁻¹.

For the variant G38U G43U U57C C70U, the “self-cleavage kobs at 640 uM GlcN6P” value with glucosamine-6-phosphate [1] was below 1e-05 s⁻¹.

For C11U A12G C67A, the “self-cleavage kobs at 640 uM GlcN6P” value with glucosamine-6-phosphate [1] is 8.5e-05 ± 2e-05 s⁻¹. The “self-cleavage kobs at 2500 uM GlcN6P” value with glucosamine-6-phosphate [2] worked out at 0.000771 ± 0.00025 s⁻¹.

For U54A G59U C68U C70G, in the series with glucosamine-6-phosphate [1], the “self-cleavage kobs at 640 uM GlcN6P” value is below 1e-05 s⁻¹.

For G35A G40U G62U, the “self-cleavage kobs at 640 uM GlcN6P” value with glucosamine-6-phosphate [1] is below 1e-05 s⁻¹. In the series with glucosamine-6-phosphate [2], the “self-cleavage kobs at 2500 uM GlcN6P” value was below 1e-05 s⁻¹.

As to A33U A42G C68A, the “self-cleavage kobs at 640 uM GlcN6P” value in the series with glucosamine-6-phosphate [1] is below 1e-05 s⁻¹. Moreover, in the series with glucosamine-6-phosphate [2], the “self-cleavage kobs at 2500 uM GlcN6P” value is below 1e-05 s⁻¹.

For the variant C8U A15C A33U G37C C71G, in the series with glucosamine-6-phosphate [1], the “self-cleavage kobs at 640 uM GlcN6P” value amounted to 5.18e-05 ± 2.5e-05 s⁻¹.

G41A U57C C67A: the “self-cleavage kobs at 640 uM GlcN6P” value with glucosamine-6-phosphate [1] was below 1e-05 s⁻¹. The “self-cleavage kobs at 2500 uM GlcN6P” value with glucosamine-6-phosphate [2] is below 1e-05 s⁻¹.

As to U54A U65A C68G, the “self-cleavage kobs at 640 uM GlcN6P” value with glucosamine-6-phosphate [1] worked out at 5.85e-05 ± 2.8e-05 s⁻¹. Moreover, the “self-cleavage kobs at 2500 uM GlcN6P” value with glucosamine-6-phosphate [2] worked out at 0.000194 ± 6.9e-05 s⁻¹.

As for G32A G51U A52U G60C G62C, the “self-cleavage kobs at 640 uM GlcN6P” value with glucosamine-6-phosphate [1] was below 1e-05 s⁻¹.

Turning to A12U G35C C70U, the “self-cleavage kobs at 640 uM GlcN6P” value in the series with glucosamine-6-phosphate [1] was below 1e-05 s⁻¹. Moreover, the “self-cleavage kobs at 2500 uM GlcN6P” value in the series with glucosamine-6-phosphate [2] was below 1e-05 s⁻¹.

Consider A6G A14G A33U, for which the “self-cleavage kobs at 640 uM GlcN6P” value in the series with glucosamine-6-phosphate [1] is below 1e-05 s⁻¹.

For the variant A33U C34U C70G, the “self-cleavage kobs at 640 uM GlcN6P” value with glucosamine-6-phosphate [1] was 0.00168 ± 0.00079 s⁻¹.

Turning to C8G G43A, the “self-cleavage kobs at 640 uM GlcN6P” value in the series with glucosamine-6-phosphate [1] is below 1e-05 s⁻¹. The “self-cleavage kobs at 2500 uM GlcN6P” value with glucosamine-6-phosphate [2] is below 1e-05 s⁻¹.

(Values after the supplement of paper PMC7125110.)
